Measured values taken from patent US20240254227A1 (Alector, published 2024).

Experiments:
Test in all cases: SPR (Carterra LSA), antibody immobilised, Fc fusion at 300 or 600 nM
human CD300C-Fc = molecular target: T1, human CD300C-Fc (human)
T1 construct: hIgG1-Fc fusion; the entry is the whole fusion chain
T1 chain: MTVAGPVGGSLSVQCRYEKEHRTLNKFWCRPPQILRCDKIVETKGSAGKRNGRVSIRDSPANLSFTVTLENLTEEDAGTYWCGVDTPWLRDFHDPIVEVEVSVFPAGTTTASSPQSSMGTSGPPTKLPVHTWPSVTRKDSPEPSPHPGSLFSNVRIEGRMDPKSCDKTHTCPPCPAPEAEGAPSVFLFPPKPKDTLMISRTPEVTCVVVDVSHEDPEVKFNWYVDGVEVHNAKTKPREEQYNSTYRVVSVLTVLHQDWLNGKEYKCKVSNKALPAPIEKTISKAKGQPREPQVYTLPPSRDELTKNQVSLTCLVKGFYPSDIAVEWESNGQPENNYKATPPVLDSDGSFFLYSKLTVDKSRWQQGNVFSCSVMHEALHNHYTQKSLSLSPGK
Method: (§1) Binding of mouse anti-CD300LB IgG1 antibodies of the present disclosure to human and murine CD300 orthologs were evaluated by surface plasmon resonance (SPR) using a Carterra LSA instrument (Carterra, Salt Lake City, UT). […] A HC200M sensor chip (Carterra) was activated using the single channel flow cell with a 7-minute injection of a 1:1:1 mixture of 100 mM MES pH 5.5, 100 mM sulfo-NHS, 400 mM EDC (all reconstituted in MES pH 5.5; 100 μL of each mixed in vial immediately before running assay). After switching to the multi-channel array flow cell, the antibodies were injected over the activated chip in a 96-spot array for 10 minutes. The remaining unconjugated active groups on the chip were then blocked by injecting 1M Ethanolamine pH 8.5 (Carterra) for 7 minutes using the single channel flow cell. After priming with running buffer (HBS-TE, Carterra) with 0.5 mg/ml BSA (Sigma), the immobilized anti-CD300LB antibodies were tested for their ability to bind human and mouse recombinant CD300LB extracellular domains. Human CD300 family members and mouse CD300A were hIgG1-Fc fusions, while mouse CD300LB, mouse CD300C, mouse CD300D, and mouse CD300E were mouse IgG2a-Fc fusions (R&D Systems). Binding was assessed by injecting each analyte over the entire antibody array using the single channel flow cell. CD300 analytes were diluted to 300 nM or 600 nM in running buffer and injected in series without regeneration. Two or three buffer blanks were run between each mouse or human ortholog, respectively. Data were processed and analyzed using NextGenKIT high-throughput kinetics analysis software (Carterra).
(§2) Results of anti-CD300LB antibody binding to human CD300 family members is provided below in Table 7.

human CD300LB-Fc = molecular target: T2, human CD300LB-Fc (human)
T2 construct: hIgG1-Fc fusion; the entry is the whole fusion chain
T2 chain: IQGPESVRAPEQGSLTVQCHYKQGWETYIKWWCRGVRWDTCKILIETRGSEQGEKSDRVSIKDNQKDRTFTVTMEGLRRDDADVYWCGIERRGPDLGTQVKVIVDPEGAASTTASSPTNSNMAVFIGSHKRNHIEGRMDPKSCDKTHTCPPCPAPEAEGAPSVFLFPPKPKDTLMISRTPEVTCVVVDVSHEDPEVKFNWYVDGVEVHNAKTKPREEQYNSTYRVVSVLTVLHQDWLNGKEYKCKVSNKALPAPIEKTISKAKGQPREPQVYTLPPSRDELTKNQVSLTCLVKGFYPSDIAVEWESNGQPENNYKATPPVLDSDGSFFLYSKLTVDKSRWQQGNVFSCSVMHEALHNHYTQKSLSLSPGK
Method: as §1, §2

human CD300F-Fc = molecular target: T3, human CD300F-Fc (human)
T3 construct: hIgG1-Fc fusion; the entry is the whole fusion chain
T3 chain: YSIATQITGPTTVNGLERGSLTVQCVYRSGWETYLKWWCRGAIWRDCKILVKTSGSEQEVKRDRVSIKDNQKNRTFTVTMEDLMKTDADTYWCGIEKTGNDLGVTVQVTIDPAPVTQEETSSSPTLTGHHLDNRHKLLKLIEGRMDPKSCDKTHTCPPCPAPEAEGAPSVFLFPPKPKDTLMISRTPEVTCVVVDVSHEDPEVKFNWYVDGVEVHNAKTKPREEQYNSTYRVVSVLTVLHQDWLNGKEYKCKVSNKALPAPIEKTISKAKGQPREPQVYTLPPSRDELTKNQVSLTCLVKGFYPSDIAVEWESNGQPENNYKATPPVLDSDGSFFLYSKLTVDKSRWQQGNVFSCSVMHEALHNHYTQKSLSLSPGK
Method: as §1, §2

human CD300A-Fc = molecular target: T4, human CD300A-Fc (human)
T4 construct: hIgG1-Fc fusion; the entry is the whole fusion chain
T4 chain: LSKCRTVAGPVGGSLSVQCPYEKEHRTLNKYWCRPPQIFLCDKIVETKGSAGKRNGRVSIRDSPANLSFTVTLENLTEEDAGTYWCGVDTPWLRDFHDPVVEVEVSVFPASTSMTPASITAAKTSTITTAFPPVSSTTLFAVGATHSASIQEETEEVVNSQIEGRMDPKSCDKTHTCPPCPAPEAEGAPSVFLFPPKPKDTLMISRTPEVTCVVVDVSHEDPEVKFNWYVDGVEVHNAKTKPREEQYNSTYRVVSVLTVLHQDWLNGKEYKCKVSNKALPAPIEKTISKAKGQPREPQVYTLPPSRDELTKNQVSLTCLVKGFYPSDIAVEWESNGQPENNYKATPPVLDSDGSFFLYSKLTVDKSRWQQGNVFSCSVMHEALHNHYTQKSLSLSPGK
Method: as §1, §2

human CD300D-Fc = molecular target: T5, human CD300D-Fc (human)
T5 construct: hIgG1-Fc fusion; the entry is the whole fusion chain
T5 chain: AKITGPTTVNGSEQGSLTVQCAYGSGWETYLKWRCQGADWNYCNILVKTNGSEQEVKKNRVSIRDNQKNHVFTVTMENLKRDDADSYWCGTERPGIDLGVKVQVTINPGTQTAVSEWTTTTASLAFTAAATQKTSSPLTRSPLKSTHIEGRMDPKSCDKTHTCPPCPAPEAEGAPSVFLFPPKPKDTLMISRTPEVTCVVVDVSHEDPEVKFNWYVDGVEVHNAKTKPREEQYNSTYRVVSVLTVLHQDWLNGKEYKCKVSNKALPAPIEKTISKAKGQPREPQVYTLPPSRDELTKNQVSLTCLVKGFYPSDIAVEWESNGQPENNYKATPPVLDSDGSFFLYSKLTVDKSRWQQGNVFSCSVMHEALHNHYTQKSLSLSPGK
Method: as §1, §2

Binder	SPR binding (control subtracted) (human CD300C-Fc)	SPR binding (control subtracted) (human CD300LB-Fc)	SPR binding (control subtracted) (human CD300F-Fc)	SPR binding (control subtracted) (human CD300A-Fc)	SPR binding (control subtracted) (human CD300D-Fc)
anti-CD300LB antibody CD-05 (antibody, V domains shown) VH: QVQLVQSGAEVKKPGASVKVSCKASGYTFSRYYINWVRQAPGQGLEWMGWINPNSGGTNYAQKFQGRVTMTRDTSTSTVYMELSSLRSEDTAVYYCTTDQLRFGKTGPYYGMDVWGQGTTVTVSS VL: DIQMTQSPSSLSASVGDRVTITCRASQNIGTYLNWYQQKPGKAPKLLIYAASSLQSGVPSRFSGSGSGTDFTLTISSLQPEDFATYYCQQSYSDTLTFGGGTKVEIK	0.06	51	0.045	0.24	0.115
anti-CD300LB antibody CD-01 (antibody, V domains shown) VH: RVQLQQSGAELVRPGASVTLSCKASGFTFTDFEMHWVKKTPVHGLEWIGAIDPESGNTAYNQKFRGKATLTADKSSSTAYMELRYLTSEDSAVYYCTPLISGADYWGQGTTLTVSS VL: DVVMTQSPLSLPVSLGDQASISCRSSQSLVHSDGNTYLYWYLQKPGQSPKLLIYKVSNRFSGVPDRFSGSGSGTDFTFKISRVGAEDLGVYFCSQSTHVPWTFGGGTKLEII	0.805	3.71	0.075	0.175	0.575
anti-CD300LB antibody CD-02 (antibody, V domains shown) VH: QVQLQQPGAELVRPGSSVKLSCQASGYTFTNYWMHWVRQRPIQGLEWIGNIDPSDSETHYNQKFKDRATLTVDKSSSTAYMQLSSLTSEDSAVYYCARSGVYDDEGGDYWGQGTTLTVSS VL: ENVLTQSPAIMSASPGEKVTMTCSASSSVSYIHWYQQKSSTSPKLWIYDTSKLASGVPGRFSGSGSGNSYSLTISSMETEDVATYYCFQGSGYPLTFGAGTKLELK	0.425	21	0.87	0.735	0.76
anti-CD300LB antibody CD-03 (antibody, V domains shown) VH: EVQLQQSGPELVKPGASVKISCKASGYTFTDYYINWVRQSHGKSLECIGDINPNNGGTNYNQKFKGKATLTVDRSSNTAYMEFRSLTFDDSALYYCAAEGAYWGQGTLVTVSA VL: not shown	0.165	43	0.42	0.095	0.4
